Measured values: article PMC8260879

Key:
[1] = molecular target: EphA4 WT fused to C-terminal mTURQ or EYFP (human) (UniProt P54764); test: fluorescence intensity fluctuation (FIF) analysis; molecular brightness in transfected HEK293 cells in the presence of ephrinA5-Fc
[2] = molecular target: EphA4 WT fused to C-terminal mTURQ or EYFP (human) (UniProt P54764); test: FRET or BRET; FSI-FRET as without ligand but with 0.5 μg/ml ephrinA5-Fc in the hypo-osmotic medium; monomer-dimer equilibrium: dimer to monomers
[3] = molecular target: EphA4 WT fused to C-terminal mTURQ or EYFP (human) (UniProt P54764); test: fluorescence intensity fluctuation (FIF) analysis; molecular brightness in regions of the basolateral membrane of transfected HEK293 cells, no ligand, data over the whole range of receptor concentrations
[4] = molecular target: EphA4 WT fused to C-terminal mTURQ or EYFP (human) (UniProt P54764); test: fluorescence intensity fluctuation (FIF) analysis; molecular brightness, no ligand, only the data at receptor concentrations above 3000 receptors/μm^2
[5] = molecular target: EphA4 WT fused to C-terminal mTURQ or EYFP (human) (UniProt P54764); test: FRET or BRET; FSI-FRET of mTURQ- and EYFP-tagged receptor in the plasma membrane of live HEK293T cells, no ligand, hypo-osmotic medium; fit of a monomer-dimer equilibrium (Equation 2): dimer to monomers; constants in two-dimensional concentration

molecular brightness at the maximum of the distribution [1]: < 2
stoichiometry N [2]: 2
molecular brightness at the peak of the distribution [3]: < 2
stoichiometry N [4]: 2
oligomeric fraction above 3000 receptors/μm^2 [5]: > 65%
stoichiometry N [5]: 2
Substance: EphA4 WT fused to C-terminal mTURQ or EYFP (from UniProt P54764-1 20-986) (receptor)
